Experimental data reported in the DeepSol protein solubility set.

assay: soluble on expression in E. coli; label from the status in PepcDB or PDB records

Row | Sequence | soluble on expression in E. coli
1 | MAHHHHHHMGEGTAAAPPHSQEPRLRRRPRQLTVRHVVHVQPTSYFAQFERRCRHDALLYSPFLREDRVQARPKTLPPSLHREVGEPGVYAAYNAYIFADVAGQHDPLHHRRVCAAADHGEEEAVAARVEAGGDVVVATNVSSPPRPDSSKSLSAVQLSLTPLLSFTLDDMADTADGDAGMGNRVECESGSTRIGEAHRCHPPPPLLHGTPPEAGLPLHKTWHLFTSYVQRHFTAFPTALVHRYHLHHLAPSLFPNVGAAALMQGAGGAGNATGDRAARSGTAVGVAISTEASGSGSAVRAARAKPNVSNSSSSSAEDVVEYWPYSLKLRCIPEATLQLPYKQHATAKKTTQAQQRAEMAGSARQAPSTVNASLGHDAATAAAVPSPHLPAPRKRERQVSSSGDSASAPAYTVHASASSSTATAATPRVLPPPAAAARTRPPSAPPRRVAVVDGVTSLLPYPTPASALALLSTTFLRSLRTSSVVAAAAAAAAGTGEVPATPSTLTESRADWHGGFAASHQRVDVPSTGMVGMGGGALGFLGTGSAVPSKYRNVSGTFLELHLPAYCFPGGGCPVKPLLHDDDSAHASGAAAVVAEDTPSATSASPPAGEAACARREGDAVLGFGSADSSTYSCGPATVSMDESQKTAPRRWSSAPLKMDSQQLRPWGGYPGLWRGQCRAARLSMRASPWR | soluble
2 | MPELDESASFAELLEAHAGGTRNVRPGDRISAAIVAITDDSVFVATGSKVDGVIDRRELEEADGSLPYAVGDRVDLYVTAVNGQEIRLSKGLSGQGGAAVLEEARDSGVPVEGRVTGTCKGGYNVDVLRKRAFCPGSQIDLHQLEDAESVVGQTFQFLVTRVEQHGRNIVVSRRALLERERDAALATFLEGVKEGDVLEGTVTRLAPFGAFVEIAPGVDGMVLEHHHHHH | not soluble
3 | MSVLNPCMTCGACCAYFRVSFYWAEGDDASGRVPASLTEPVTPFLRCMAGTNQKQPHCKALIGTPGENVSCAIYENRPSTCREFSISGEGGEVNEACNRARARYGLPPLYKDMLFHTTADAATVELSRVQLPANLEHHHHHH | not soluble
4 | MQRRLERFDAKLVQSGLDALLVTGQNNIYYLTDFWGTNATVFITKNRRLFLTDSRYTLIAKQSVHGFDIIESKDPLKDIVKFVEVDKLETIGFDNQVSFAYYQALQAIFEGYTLSPQTNFMEELRMIK | soluble
5 | MGSDKIHHHHHHMAIYEARGFSSYLYPYKGPLEPFDYIAQFRPLKPPEDIDIEEYKRTQAPYCLSGKVTAEKNGSYKRNNASLVYRDLIFLDYDEIETGVNLPKIVSQTLWEYSYIIYPTIKHTPEKPRYRLVMKPSDVMTEATYKQVVKEIADKIGLPFDLASLTWSQLQGLPVTTGDPEDYQRYVNHGLDYPVPKNGSTPNRQVVTTYTPRPRSQRSITMRVIDTLFNGFGNEGGRNVALTKFVGLLFNKWVDCDLETAYELVQIANSVTTKPLPIDEIDRTFTSIAKAEYRKRG | not soluble
6 | MGSDKIHHHHHHMSQQLTFADSEFSSKRRQTRKEIFLSRMENLLPWSQLLDVIEPFYPKVGNGRRPYPLETMFRIHCMQQWYSLSDEATEDALYEIASMRQFALLSLDKAIPDRTTIMNFRHLLEKHKLTRKLFKTVNQWLSDSGVMMTQGTLVDATIIEAPSSTKNKNNERDPDMHQTKKGNQWHFGMKAYIGVDAKSGLTHTLVTTAANEHDLNQLDNLLHGEEEFVSGDAGYQGAQKREELKDTNVEWLIAERPGKIRALKKRPRKNKTIINIEYLKASIRAKVEHPFRIIKCQFGFIKARYKGLMKNDSQLAMLFTLANLFTVDQMLRRQPRSV | not soluble
7 | ELGRLEDPAFTIKDAMIVATYPGATSKEVEEELTYPLEKEIRKLPYIDRITSTSSNGMSQIMVSMKMDYGPDELPQIWDEMRRKINDLQPTLPQGVQSLQIIDDFGDVYGVMLMLTGDDYDYVELKRYADHLRREIELVDGVGKVDIAGDQQEMLFVEISLDRLASLNLDMNVVSGLLNQQNNVVSAGEVMVNGESLVIRPSGTLNTVQALENLIIHGRDTGNLIRLKDVATITRGIQEKPGNMILFNGKKAINIGISFASGVNVVEVGERLNAELSSLESIKPAGLDMSYFYNQAQEVDDSVK | soluble
8 | SKVKVAVRIRPMNRRETDLHTKCVVDVDANKVILNPVNTNLSKGDARGQPKVFAYDHCFWSMDESVKEKYAGQDIVFKCLGENILQNAFDGYNACIFAYGQTGSGKSYTMMGTADQPGLIPRLCSGLFERTQKEENEEQSFKVEVSYMEIYNEKVRDLLDPKGSRQTLKVREHSVLGPYVDGLSKLAVTSYKDIESLMSEGNKSRTVAATNMNEESSRSHAVFKITLTHTLYDVKSGTSGEKVGKLSLVDLAGSERATKTGAAGDRLKEGSNINKSLTTLGLVISALADQSAGKNKNKFVPYRDSVLTWLLKDSLGGNSKTAMVATVSPAADNYDETLSTLRYADRAKHHHHHH | soluble
9 | MAGDPMTFLIIRQTHENVLSKETVVKKVEASYEGKVTKATQSKDKKTYDITLENPKGTYFVKADAISADILSMNRVKAVNPSAMTEKEAEHLALERVPGTVKKQTRQSQVATYTIQKEDGKTYEVKVDMQAKTVLSADQISSKDQQKTPITKKEAKTIAERKTGGTADDADLEESEGTLIFEVDVDLPDNKEATVKINAYTGKVANIVYEDLEHHHHHH | not soluble
10 | DITGIPSGFNDLDQKTSGFQPGDLIIVAGRPSMGKTAFALNIGEHVALETSKPVAVFSMEMGGVQLAMRMLGSIGRLDQHKMRTGQLNDDDWPRLTHALGKLNDAPIFIDESAGLNSLELRARARRLYRQHEGLGLIIIDYLQLMSATSPGSENRAAEISEISRSLKALAKELQVPVIALSQLNRGLEQRPNKRPIMSDL | not soluble
11 | MSKQENIISHNTDSSLLNTVMQQMKERIINEGDKPHVTVETQLKILQELSQFGFGQFLIKNQGINGYWTHYMLTHPWFGRKTGLNNSREPLSNMECFLLDKAPTMLATQQRFELFLQENQKALVNGATLASIPCGMLGELLYLDFNGINNIQLMGIDYDQAALEDANALAKERNLDRFTTLVCRNAWELNIQEEFDLISSNGLNIYEPDDNKVLDLYQQFHTALKKGGKLVTSFLTPPPHLSSQCEWIFNKINPEDLLLQRIIFSDILNAKFQCYRSSQQTQKQLALAGFKNIHFLYDEAHLFPTVIAEK | not soluble
12 | MISSSLPSSNAASSSEGRITQAKDVQGFSQRSASGQTPLNQSAALSEQAVPSFRLAAQTFSSEERKEATTATTEENAAVDTTGMNVLLSATTPTETPDLAAQAQTLTQGMLNMAEKSVASFNKVNPLEIKGEAKTTSPAQANALLNTSPQQQDIQTSQTTSANARVNTSAVDFQALLNQPAQGQATTAPLNVQTSAPSAQAVSAATVAHAHTQGSEWAAVKVDTSAGKWGEQMMQVLHDRVTLQAQQSVQEAKIRLDPPDLGKLDLLVRVEGDRLSVQINANTAATREALMQVSERLRTELQEQNFVHVDVNVGADQGQERHQQQMNDEDTTIFAARESSAFQSNTTTNYSEHWLNTQA | not soluble
13 | SSYCKQEGKDCIIFVTKEDHEAPSNAELVEDDPNDPYEDHGLILPNGDINWNCPCLGGMASGPCGQQFKDAFSCFHYSKEEIKGSDCVENFRGMQECMQKYPELYPQEDDNDSAPSGGANTAPTDSLPASSTDSTAAAATENPATS | soluble
14 | MPYAIDFGTTNTVIARWNEATRQGNLIDLPSLSHPLGDSGPLVPSLLYVENAALGQVAIAREVLDRGRDISTDTRFFKNFKRGIGVAVQGFLPQLDGHTLSLETLGQWYLDKLIRILTEQEGQGPDCLALTVPVDSFESYRHWLSHTCRSWGVEEVRLVDEPTAAALGYGVGDASQILVLDFGGGTVDFSWVQLGDRGQKGRSGFLLKWGGILGGSKAEEKSALAKVLAKAGANLGGSDIDYWISEYFTEAQGLQVSPWIRRLAERLKIALGEAEEATEVYFDDQALESYEFQLRRSDLTEILQQRQFFERLTALWEQVQQTAQRRGLTPANLDAVLVVGGTSQLPMVQDWINAQFPAGKIRNQQPFGAIALGALQIYQGREVQDYLYHSYGVRYWNRRKNSHNWHPIIKNGQTYPMAEPIELTLGASLDNQPSIELIVGELGSSIGATEVYFDGNQLITRVLENQAFTVQPLNDRNGARQIAQLSPPGVPGGDRIKVKFWVDDQRYLRLTVEDLLQQKLLLENQVVAQLRLEHHHHHH | not soluble
15 | MTTTGHVHFYIGTYTNPPSTSTSTGIARLSLNTETGELTRLDDVVVQRNPSYLTTTEHGLYTFSEMDRNEGTELAFFRGSESVSLPINGDYPCHLDIKEPLLAVANYGSGNVSVFQLDRDGKPLGLLADLYVDGCGPNLERQTSPHAHQVTFLKHSHQLVVVDLGSDSVLIYDYDAQPPDFSLSQVIHLPAGSGPRHVVFNQQESTAYVVCELSETLIVLVKHQDKWLISNQTELLEGEENQQAAAAIRLSQDETFLYVSCRAQNKISMFDVSGDTPKRRAAIHCEGVFPRDFVLSHDQKWLLVANQHSNNVVSFRRNPQTGEITPTGYDCEIGSPVCIVEQPLLEHHHHHH | not soluble
16 | MKRESVLFQAARKHHLNLLFPLFRANTSASYPVSRFISRPITVLSKGFAKGFFCIKKETVDKIQQFFFDKWAIEERRYHQLLSILLPGLKNGNLASVEQYLGAKRIEAYAAVPYVAGRWELDDASLPQGAVVVLTCEGVLYSWETYRLERYISAAMANDRISGVVLFVNGPGGMITRVDVLEKLIRQSPKPIVAYITGVCASAHFWFVSACARRFVSSPMDEIGSCGVVYTFQSFKEYYAQMGIEIEDIYPDSADLKNRAYRDKEEKQDDTLIKENLSFYHHLFAQTIARNLGVKYDAQDPLFRGQTFFADTALAKGYVDAYGSLEDAILWVSAQKTVKRANKMILEHHHHHH | not soluble
17 | MPHSQTSAPRDSLAGVRLARGASPWLLPTVATAAVSLLRARRSGTAKAVAVPATALAAGMLWFFRDPEREITQGRVVSPADGVVQSIMPWKDGRTRVAIFMSPLNVHVNRAPLAGTVTSVEHVPGGFVPAFNKESENNERVVWHFDTELGDIEMIQIAGAVARRIVPYVPQGTKVEQGERVGLIRFGSRVDLYLPEGVEVDVEVGQKTVAGVTRIDRDLEHHHHHH | not soluble
18 | MSLDLPPGVVALVNGTRITQEQLDRAIAQSGAQANPQVAQALKQQLIARELFRQQAAKNPAYDKLPAVKQAMQEAHDAVITQAWLKDNIKPAPITEEQVKARYDAIVASLGDKEYKARVIQLGDDVTAAQVLAQLKQGGDFAKLAQQYSTAPNKVRGGDMDWVSFKVPVEEGKTQNLPLPLAREIAALGIGAASTAPVEVGSQRYIVKVEAARPTQVPGYDTVRPAIRQALETAELERVTVQVVGGLLKAAKIVQEGHHHHHH | soluble
19 | IIHREYPRHHVLHRFTPASKPNGKKILITHGWMSRAAYMVRLIRLLHKEGYEVYAIDFPAHGEAKGIQLPWTDAIAIIKETINQFGPFYGLVGHSFGGSMILNTLNLAGQLPEWQLNHKPERAILIASPTQMRTPVNKIARRFKLSGQAYLQLRQLIRQQASVDPERIRLSHFISQAPDTYFLCIHGELDATINPKESINFCKYYKNARLSLLPDADHVSVLMDERVEQIALDFLNR | not soluble
20 | MSLRGIRMKDYDLIVIGTGSGMNYVNSIIDSNPKMKIAVIDKDEPGGICLTRGCIPSKLLLYPAELVRDLETAPLFGIKLEIKDIEFRTIMERMRKRIGEDIEMIRQGLTENDYLDYYPETAEFISPYTLKAGDEILHSEMIFLCTGSKPAVPPVRGLEEAGYLTSDTVLGLNECPKSLAILGGSYIGAEYGHFFSAMGAEVTVIGRNQHFLPQEEPEVSELARIKMSEYMRILTNHEAIEVRKEKGGQKTVIAKDRDSGEETEVTADEILVATGRAPNNDILHPEKAGIKTDPHGWILVNEYLETSQPNIWAFGDANGKYLLKHVGNYESGIVYLNAIMQEKVKVDYHAVPHAVFSYPEIAGVGMSEKEAIEEFGEKRVIIGFKLFEDTAKGSAMETRDYFVKVILDGLEDKILGAHIIGPHASVLIHQIIPLMYTASRSAKPMMQMMDIHPALSEVVKRAFYSRLSPEHYHHVMKHLGLEDEDSVEGHHHHHH | soluble
